Laboratory results: patent US20220153839A1 (NBE THERAPEUTICS, published 2022)
Values belong to the binder of their own block, whether it stands above or below them.

What was measured:
[1] = biological target: T1, hROR2 (human, UniProt Q01974); test: flow cytometry on T47D cells (ROR2 positive, ROR1 negative); APC goat anti-human Fcγ
T1 construct: full length, on the cell surface; also called 63-12 / hROR2; ROR2 on T47D cells
Experimental: Flow cytometry: Cells were stained using standard flow cytometry methodology. Briefly, for purified anti-ROR1 Fab (FIG. 3), 0.1-1×10⁶ cells were stained with 1000 ng/100 μL of Fab on ice for 1 h. After washing twice with ice-cold flow cytometry buffer (PBS containing 1% (v/v) BSA, 0.1% sodium azide and 1 mM EDTA), the cells were incubated with a 1:1000 dilution of a mouse anti-His tag mAb conjugated to Alexa Fluor 488 (Qiagen) in 100 μL flow cytometry buffer on ice for 30 min. For purified anti-ROR1 IgG1 (FIG. 8), 0.1-1×10⁶ cells were blocked by 4% goat serum for 15 min at room temperature and then incubated with 100 ng/100 μL of IgG on ice for 1 h. After washing twice with ice-cold flow cytometry buffer, cells were stained with a 1:500 dilution of goat anti-human IgG, Fcγ pAbs conjugated to APC (Jackson ImmunoResearch) in 100 μL flow cytometry buffer on ice for 30 min. For commercial goat anti human ROR1 polyclonal antibody (FIG. 8), 0.1-1×10⁶ cells were stained with 200 ng/100 μL of Ab on ice for 1 h. […] Finally, 4′,6-diamidino-2-phenylindole (DAPI) was added to a final concentration of 100 ng/mL to exclude dead cells from the analysis. Cells were analyzed using a FACSCalibur instrument (BD Biosciences) and FlowJo analytical software (Tree Star, Ashland, Oreg.).

[2] = biological target: T2, human ROR1, full length, on cells (human, UniProt Q01973 30-937); test: cell-based or functional assay
T2 sequence (Q01973 30-937): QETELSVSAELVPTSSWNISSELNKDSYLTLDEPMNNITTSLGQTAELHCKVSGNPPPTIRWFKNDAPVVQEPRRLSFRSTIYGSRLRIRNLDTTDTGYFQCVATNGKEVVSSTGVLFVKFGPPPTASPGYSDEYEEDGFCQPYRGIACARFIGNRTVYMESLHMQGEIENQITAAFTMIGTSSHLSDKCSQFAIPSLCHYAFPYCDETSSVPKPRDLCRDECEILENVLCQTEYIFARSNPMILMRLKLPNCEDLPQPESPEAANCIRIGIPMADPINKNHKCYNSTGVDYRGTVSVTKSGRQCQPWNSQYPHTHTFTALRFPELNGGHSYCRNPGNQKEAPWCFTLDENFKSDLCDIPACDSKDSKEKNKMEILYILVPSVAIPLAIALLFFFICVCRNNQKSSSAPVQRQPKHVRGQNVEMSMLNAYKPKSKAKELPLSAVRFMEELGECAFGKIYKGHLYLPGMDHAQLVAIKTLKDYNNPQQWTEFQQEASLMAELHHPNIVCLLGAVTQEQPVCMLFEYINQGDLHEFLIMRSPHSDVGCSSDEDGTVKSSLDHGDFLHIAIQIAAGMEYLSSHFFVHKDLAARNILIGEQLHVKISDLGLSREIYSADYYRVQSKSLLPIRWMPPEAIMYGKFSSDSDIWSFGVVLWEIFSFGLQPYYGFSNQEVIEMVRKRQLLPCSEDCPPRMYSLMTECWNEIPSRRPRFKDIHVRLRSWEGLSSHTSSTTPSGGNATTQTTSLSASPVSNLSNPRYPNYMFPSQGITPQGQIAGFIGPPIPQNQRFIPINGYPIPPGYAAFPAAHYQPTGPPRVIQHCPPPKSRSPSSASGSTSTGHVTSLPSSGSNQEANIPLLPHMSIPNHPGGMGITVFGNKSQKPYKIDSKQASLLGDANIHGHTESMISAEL

[3] = biological target: T2, human ROR1, full length, on cells; test: cell-based or functional assay; remark: listed apart in the source
[4] = biological target: T2, human ROR1, full length, on cells; test: cell-based or functional assay; remark: listed apart in the source
[5] = biological target: T2, human ROR1, full length, on cells; test: cell-based or functional assay; remark: listed apart in the source
[6] = biological target: T2, human ROR1, full length, on cells; test: cell-based or functional assay; remark: listed apart in the source
[7] = biological target: T2, human ROR1, full length, on cells; test: cell-based or functional assay; remark: listed apart in the source
[8] = biological target: T2, human ROR1, full length, on cells; test: cell-based or functional assay; remark: listed apart in the source
[9] = biological target: T3, hFc-hROR2 (extracellular domain of human ROR2 fused to the Fc domain of human IgG1) (human, UniProt Q01974 34-403); test: ELISA as for hFc-hROR1; third bar series, keyed 'hFc-hROR1' a second time on the sheet, taken as hFc-hROR2 by legend paragraph 27
T3 construct: extracellular domain; not shown: Fc domain of human IgG1
T3 sequence (Q01974 34-403): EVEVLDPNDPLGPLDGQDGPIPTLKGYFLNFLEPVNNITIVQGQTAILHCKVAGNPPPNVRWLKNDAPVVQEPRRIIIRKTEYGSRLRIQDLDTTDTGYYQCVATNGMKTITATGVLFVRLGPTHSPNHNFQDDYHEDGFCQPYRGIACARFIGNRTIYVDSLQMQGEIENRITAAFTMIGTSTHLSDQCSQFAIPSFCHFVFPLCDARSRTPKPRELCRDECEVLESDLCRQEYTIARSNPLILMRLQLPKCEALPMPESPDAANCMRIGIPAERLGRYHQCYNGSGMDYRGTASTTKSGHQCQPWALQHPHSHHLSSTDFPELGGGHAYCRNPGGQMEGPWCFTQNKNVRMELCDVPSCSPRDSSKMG

[10] = biological target: T1, hROR2; test: flow cytometry on 63-12 / hROR2 cells; anti-His Alexa Fluor 488
[11] = biological target: T4, hFc-mROR1 (extracellular domain of mouse ROR1 fused to the Fc domain of human IgG1) (human; mouse, UniProt Q9Z139 30-406); test: ELISA; hFc fusion captured by coated anti-human IgG1 Fc; Fab 100 ng/50 µL; anti-His-HRP; A405
T4 construct: extracellular domain; not shown: Fc domain of human IgG1
T4 sequence (Q9Z139 30-406): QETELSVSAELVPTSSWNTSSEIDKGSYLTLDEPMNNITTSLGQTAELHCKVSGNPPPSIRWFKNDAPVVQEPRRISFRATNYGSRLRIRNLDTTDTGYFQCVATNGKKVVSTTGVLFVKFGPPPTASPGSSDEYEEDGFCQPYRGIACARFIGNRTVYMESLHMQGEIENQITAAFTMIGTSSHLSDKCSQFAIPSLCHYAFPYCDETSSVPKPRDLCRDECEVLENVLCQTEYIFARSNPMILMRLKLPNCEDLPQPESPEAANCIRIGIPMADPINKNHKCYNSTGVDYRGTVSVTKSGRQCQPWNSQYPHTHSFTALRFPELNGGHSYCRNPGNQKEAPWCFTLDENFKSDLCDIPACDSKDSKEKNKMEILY
Experimental: The binding of each chimeric rabbit/human Fab to hROR1 and mROR1 fused with human IgG1 Fc (hFc-hROR1 and hFc-mROR1) was analyzed by ELISA. hFc-ROR1 or hFc-mROR1 were captured by anti-human IgG1 Fc antibody immobilized on plate and then incubated with hROR1 specific Fabs comprising a His-tag via detection with mouse anti-His tag.
ELISA: For ELISA (FIG. 2), each well of a 96-well Costar 3690 plate (Corning, Corning, N.Y.) was coated with 100 ng anti-human IgG1 Fc in 25 μL coating buffer (0.1 M Na₂CO₃, 0.1 M NaHCO₃, pH 9.6) for 1 h at 37° C. After blocking with 150 μL 3% (w/v) BSA/TBS for 1 h at 37° C., hFc-hROR1 or hFc-mROR1 was captured following incubation at 100 ng/50 μL for 1 h at 37° C. Then 100 ng/50 μL of Fab was applied in each well at 37° C. 2 h later, 50 μL of a 1:1000 dilution of a mouse anti-His tag mAb conjugated to horse radish peroxidase (HRP) (R&D Systems, Minneapolis, Minn.) in 1% (w/v) BSA/TBS was used to detect the Fab. To determine the epitopes (FIG. 4), hFc fusion proteins containing different domains of hROR1 were coated directly, followed by incubation with Fab before detection by mouse anti-His tag mAb conjugated to HRP. […] The absorbance was measured at 405 nm using a SpectraMax M5 microplate reader (Molecular Devices; Sunnyvale, Calif.) and SoftMax Pro software (Molecular Devices).

[12] = biological target: T5, hFc-hROR1 (extracellular domain of human ROR1 fused to the Fc domain of human IgG1) (human, UniProt Q01973 30-406); test: SPR (Biacore X100); hFc-hROR1 captured by anti-human Fcγ antibody on CM5; Fab as analyte; 1:1 Langmuir fit
T5 construct: extracellular domain; also called hFc-ROR1; not shown: Fc domain of human IgG1
T5 sequence (Q01973 30-406): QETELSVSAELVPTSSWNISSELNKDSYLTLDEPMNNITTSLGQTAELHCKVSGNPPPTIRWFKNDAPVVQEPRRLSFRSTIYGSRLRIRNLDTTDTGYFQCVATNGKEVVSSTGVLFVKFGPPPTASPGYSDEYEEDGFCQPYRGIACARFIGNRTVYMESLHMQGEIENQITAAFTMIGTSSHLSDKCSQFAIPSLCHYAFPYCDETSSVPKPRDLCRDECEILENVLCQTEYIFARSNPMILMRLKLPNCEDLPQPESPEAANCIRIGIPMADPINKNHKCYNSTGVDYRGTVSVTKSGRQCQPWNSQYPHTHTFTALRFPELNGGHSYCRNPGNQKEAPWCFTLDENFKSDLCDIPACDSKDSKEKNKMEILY
Experimental: (A) Shown are Biacore X100 sensorgrams obtained for the binding of each Fab to hFc-hROR1 captured by anti-human Fcγ antibody immobilized on CM5 chip after instantaneous background depletion. Fabs were injected at five different concentrations with the highest concentration indicated in table (B), one of the five concentrations was tested in duplicates. The equilibrium dissociation constant (Kd) was calculated from koff/kₒₙ (kₒₙ, association rate constant; koff, dissociation rate constant).
Surface plasmon resonance: Surface plasmon resonance for the measurement of the affinities of all Fabs to hFc-hROR1 and for epitope mapping studies were performed on a Biacore X100 instrument using Biacore reagents and software (GE Healthcare, Piscataway, N.J.). Anti-Human IgG (Fc) antibody was immobilized on a CM5 sensor chip following the instruction of Human Antibody Capture Kit (GE Healthcare, Piscataway, N.J.). The sensor chip included an empty flow cell for instantaneous background depletion. All binding assays used 1×HBS-EP+ running buffer (10 mM HEPES, 150 mM NaCl, 3 mM EDTA (pH 7.4), and 0.05% (v/v) Surfactant P20) and a flow rate of […]. […] The sensor chip was regenerated with […] from the Human Antibody Capture Kit without any loss of binding capacity. Calculation of association (kₒₙ) and dissociation (koff) rate constants was based on a 1:1 Langmuir binding model. The equilibrium dissociation constant (Kd) was calculated from koff/kₒₙ. For epitope mapping studies, each Fab was prepared at 500 nM alone in 1×HBS-EP+ running buffer and then injected in order as indicated in FIG. 5.

[13] = biological target: T6, Kr (human, UniProt Q01973); test: ELISA on directly coated hFc fusion proteins of hROR1 domains; anti-His-HRP; A405
T6 construct: Kringle domain of the extracellular domain; also called hFc-hROR1-Kr
T6 sequence (Q01973 312-391 limits assumed): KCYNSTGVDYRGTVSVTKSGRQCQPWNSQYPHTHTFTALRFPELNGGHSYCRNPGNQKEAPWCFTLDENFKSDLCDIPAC

[14] = biological target: T7, Fr + Ki (human, UniProt Q01973); test: as above
T7 construct: Frizzled and Kringle domains of the extracellular domain; also called hFc-hROR1-Fr-Ki
T7 sequence (Q01973 165-391 limits assumed): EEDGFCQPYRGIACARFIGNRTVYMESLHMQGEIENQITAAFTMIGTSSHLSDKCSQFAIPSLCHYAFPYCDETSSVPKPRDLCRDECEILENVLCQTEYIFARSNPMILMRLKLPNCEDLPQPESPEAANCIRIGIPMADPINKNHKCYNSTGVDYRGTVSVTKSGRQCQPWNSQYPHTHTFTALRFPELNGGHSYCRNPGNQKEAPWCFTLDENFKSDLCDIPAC

[15] = biological target: T8, Ig (human, UniProt Q01973); test: as above
T8 construct: Ig domain of the extracellular domain; also called hFc-hROR1-Ig
T8 sequence (Q01973 42-147 limits assumed): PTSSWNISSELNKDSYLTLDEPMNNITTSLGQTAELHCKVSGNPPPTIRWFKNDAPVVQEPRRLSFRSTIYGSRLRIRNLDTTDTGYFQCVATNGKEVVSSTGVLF

[16] = biological target: T9, Fr; test: as above
T9 construct: also called hFc-hROR1-Fr
T9 sequence (chain, as listed by the source limits assumed): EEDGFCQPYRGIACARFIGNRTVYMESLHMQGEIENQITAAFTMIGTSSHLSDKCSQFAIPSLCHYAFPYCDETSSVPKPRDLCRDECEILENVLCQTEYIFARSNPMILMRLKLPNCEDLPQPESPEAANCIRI

[17] = biological target: T2, human ROR1, full length, on cells; test: flow cytometry on human cancer cell lines; 2A2 2 µg/mL; anti-human IgG (Fcγ) PE
Experimental: 5×10⁵ of each cell type were added per well to 96-well plates. Plates were centrifuged (3 min, 1300 rpm) with re-suspension in buffer (PBS supplemented with 2% (v/v) of FCS). […] Plates were then incubated on ice for 30 min and washed with 200 μL of buffer prior to resuspension in 200 μL of buffer supplemented with anti-human IgG antibody (Fc gamma-specific) PE (eBioscience 12-4998-82) at a 1:250 dilution. Following 30 min incubation on ice and one washing, cells were analyzed using a FACSCalibur instrument (BD Biosciences) and data was analyzed using FlowJo analytical software (Tree Star, Ashland, Oreg.).

T1 sequence (Q01974 34-943 limits assumed): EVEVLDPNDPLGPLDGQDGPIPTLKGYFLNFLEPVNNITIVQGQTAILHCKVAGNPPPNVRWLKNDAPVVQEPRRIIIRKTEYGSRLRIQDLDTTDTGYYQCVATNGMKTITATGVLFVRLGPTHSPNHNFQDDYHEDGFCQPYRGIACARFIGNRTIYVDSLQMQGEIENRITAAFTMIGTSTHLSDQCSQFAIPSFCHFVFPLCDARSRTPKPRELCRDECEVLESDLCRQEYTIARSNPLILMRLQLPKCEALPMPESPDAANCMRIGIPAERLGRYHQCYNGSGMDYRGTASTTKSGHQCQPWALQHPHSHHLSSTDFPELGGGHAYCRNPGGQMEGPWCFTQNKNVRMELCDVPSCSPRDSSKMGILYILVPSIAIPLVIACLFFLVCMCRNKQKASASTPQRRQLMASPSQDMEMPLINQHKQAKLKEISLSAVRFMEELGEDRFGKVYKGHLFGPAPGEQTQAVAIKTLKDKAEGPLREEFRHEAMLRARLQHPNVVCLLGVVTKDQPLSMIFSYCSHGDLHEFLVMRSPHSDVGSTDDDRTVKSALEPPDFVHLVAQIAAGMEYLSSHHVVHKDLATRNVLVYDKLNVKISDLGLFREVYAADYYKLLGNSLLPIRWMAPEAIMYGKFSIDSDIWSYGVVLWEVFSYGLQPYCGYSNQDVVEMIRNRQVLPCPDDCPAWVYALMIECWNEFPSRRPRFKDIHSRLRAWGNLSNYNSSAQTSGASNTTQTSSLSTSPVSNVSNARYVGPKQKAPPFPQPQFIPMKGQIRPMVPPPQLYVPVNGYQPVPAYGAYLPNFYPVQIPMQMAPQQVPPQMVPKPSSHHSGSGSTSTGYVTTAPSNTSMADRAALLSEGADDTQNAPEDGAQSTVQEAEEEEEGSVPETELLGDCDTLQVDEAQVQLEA

binding result [1]: no binding (tested: 100 ng/100 µL)
B1: ERR1-TOP54 (antibody, IgG1, V domains shown)
VH: QSLEESGGRLVTPGTPLTLTCTASGFSLSDYYMSWVRQAPGEGLEWIGTIYGGSGNTWYATWAKGRFTISKTSTTVDLKITSPTTEDTATYFCARDFGLSTGGLWGPGTLVTISS
VL: SYELTQLPSVSVSLGQTARITCGGNSIGSKAVNWYQQKPGLAPGLLIYDDDERPSGVPDRFSGSNSGDTATLTISGAQAGDEADYYCQLWDSSARAFVFGGGTQLTVTG
notes: also called ERR1-TOP54 chimeric rabbit/human IgG1

binding result [1]: no binding (tested: 100 ng/100 µL)
B2: ERR1-TOP43 chimeric rabbit/human IgG1 (antibody, V domains shown)
VH: QSLEESGGRLVTPGTPLTLTCTVSGFSLSSYWMSWVRQAPGKGLEWIGAIYGSGNTYYASWAKGRFTISKTSTTVDLKITSPTTEDTATYFCARDVHSTATDLWGPGTLVTISS
VL: SYELTQLPSVSVSLGQTARITCGGNNIGSKAVNWYQQKPGLAPGLLIYNDDERPSGVPDRFSGSNSGDTATLTISGAQAGDEADYYCQLWDSSAGAYVFGGGTQLTVTG
notes: Rabbit variable domains on human IgG1 constant regions (pCEP4), lambda light chain, from HEK 293F cells

B3: XBR1-402-G5-PNU antibody drug conjugate (other)
VH: QEQQKESGGGLFKPTDTLTLTCTASGFDISSYYMSWVRQAPGNGLEWIGAIGISGNAYYASWAKSRSTITRNTNLNTVTLKMTSLTAADTATYFCARDHPTYGMDLWGPGTLVTVSS
VL: SYELTQLPSVSVSLGQTARITCEGNNIGSKAVHWYQQKPGLAPGLLIYDDDERPSGVPDRFSGSNSGDTATLTISGAQAGDEADYYCQVWDSSAYVFGGGTQLTVTG
modifications: Gly5-EDA-PNU joined by sortase to the LPET of the C-terminal G5SLPETG tag of the full light chain; Gly5-EDA-PNU (PNU-159682 derivative) joined by sortase to the LPET of the C-terminal LPETG tag of the full heavy chain
IC50 (cell killing of Kasumi-2 cells, luminescence) [2]: 1.2 ng/mL
IC50 of in vitro cell killing, hROR1-overexpressing EMT-6 (clone 14) [3]: 15 ng/mL
IC50 of in vitro cell killing, 697 cells [4]: 17.6 ng/mL
IC50 values on 697 cells (in vitro cell killing) [5]: 212 ng/mL
IC50 of in vitro cell killing, HS 578T cells (hROR1 status positive) [6]: 1400 ng/mL
IC50 (cell killing of 697 cells, luminescence) [7]: 75.7 ng/mL
IC50 of in vitro cell killing, hROR1-overexpressing EMT-6 [8]: 1.1 ng/mL

binding result [9]: no binding (tested: 100 ng/50 µL)
binding result [10]: no binding (tested: 1000 ng/100 µL)
binding result [11]: binds
Kd [12]: 110 nM
koff [12]: 0.0813 s⁻¹
kon [12]: 737000 M⁻¹ s⁻¹
binding result [13]: no binding
binding result [14]: no binding
binding result [15]: no binding
binding result [16]: no binding
B4: ERR1-TOP22 chimeric rabbit/human Fab (Fab, V domains shown)
VH: QSLEESGGRLVTPGTPLTLTCTVSGFSLSSYYMSWVRQAPGKGLEWIGTISSSGSTYYASWVKGRFTISKTSTTVDLKMTSLTTEDTATYFCARDLDYDMDLWGPGTLVTVSS
VL: SYELTQLPSVSVSLGQTARITCGGNSIGSKAVHWYQQKPGLAPGLLIYNDDERPSGVPDRFSGSNSGDTATLTISGAQAGDEADYYCQLWDNNAAVFGGGTQLTVTG
notes: Chimeric rabbit/human Fab with His tag, expressed in E. coli (pET11a); lambda light chain

binding result [17]: binds
B5: 2A2 (mAb066) IgG (antibody)
heavy: not shown
light: DIVMTQSQKIMSTTVGDRVSITCKASQNVDAAVAWYQQKPGQSPKLLIYSASNRYTGVPDRFTGSGSGTDFTLTISNMQSEDLADYFCQQYDIYPYTFGGGTKLEIKRTVAAPSVFIFPPSDEQLKSGTASVVCLLNNFYPREAKVQWKVDNALQSGNSQESVTEQDSKDSTYSLSSTLTLSKADYEKHKVYACEVTHQGLSSPVTKSFNRGECGGGGSLPETGGWSHPQFEK
notes: Known anti-ROR1 antibody (WO 2010/124188), murine-human chimeric IgG1; tags HC: LPETG-Strep, LC: G5SLPETG-Strep; they may be variable domains only
